For 13 molecules, Kd and IC50 results are on record in US20180066058A1 (published 2018).

Assay [1] has as its target T1, Human ICOS extracellular domain fused to human Fc (human, UniProt Q9Y6W8 21-140).
T1 construct: Dimeric protein made in house from NCBI NP_036224.1; also called hICOS; hICOS Fc; not shown: human Fc region
T1 sequence: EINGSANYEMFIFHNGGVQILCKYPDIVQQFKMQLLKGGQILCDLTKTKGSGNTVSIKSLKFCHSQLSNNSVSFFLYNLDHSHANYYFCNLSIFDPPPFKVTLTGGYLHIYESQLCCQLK
In words: SPR (ProteOn XPR36), Fc-tagged ICOS captured on anti-human IgG, Fab analyte, 25 C. How it is done: (§1) Fab affinities of the ICOS leads were generated by SPR using the ProteOn XPR3 6 (BioRad). An anti-human IgG capture surface was created on a GLC biosensor chip by primary amine coupling, immobilising three anti-human IgG antibodies (Jackson Labs 109-005-008, 109-006-008 and 309-006-008). […] Binding sensorgrams were double referenced using a buffer injection (i.e. 0 nM), and the data was fitted to the 1:1 model inherent to the ProteOn XPR36 analysis software. The assay was run at 25° C. and using HBS-EP as running buffer.

Assay [2] has as its target T2, Mouse ICOS extracellular domain fused to human Fc (mouse, UniProt Q9WVS0 21-141).
T2 construct: Made in house from NCBI NP_059508.2; also called mICOS; mICOS Fc; not shown: human Fc region
T2 sequence: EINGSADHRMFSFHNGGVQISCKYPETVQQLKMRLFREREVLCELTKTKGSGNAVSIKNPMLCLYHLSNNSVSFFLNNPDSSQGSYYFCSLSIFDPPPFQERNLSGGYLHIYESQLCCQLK
Described as above. As for the experimental part: as §1

Assay [3] has as its target T3, human ICOS-mFc (Chimerigen) (human, UniProt Q9Y6W8 21-140).
T3 construct: also called human ICOS receptor; human ICOS Receptor; not shown: mouse Fc of the bought construct
T3 sequence: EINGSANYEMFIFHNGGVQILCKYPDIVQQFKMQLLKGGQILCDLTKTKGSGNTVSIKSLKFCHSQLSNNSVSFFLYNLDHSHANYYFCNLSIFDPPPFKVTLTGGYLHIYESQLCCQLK
The assay can be described thus: HTRF neutralisation of Alexa 647 human B7-H2 binding to human ICOS-mFc; human IgG1; mean, n = 4. How it is done:
(§2) 5 μl of ICOS receptor (human ICOS-mFc, 20 nM, 5 nM final or mouse ICOS-mFc 4 nM, 1 nM final (Chimerigen)) was added to required wells. Plate was incubated for 1 hr at room temperature (RT).
(§3) Finally, 5 μl of anti-mouse IgG donor mAb (Southern Biotech) labelled with europium cryptate (Cis Bio), 40 nM, 10 nM final was added to each well and the assay was left in the dark at RT to incubate for a further 2 hours. After incubation, assay was read on Envision plate reader (Perkin Elmer) using a standard HTRF protocol. […] Titration curves and IC50 values [M] were plotted using Graphpad (Prism). IC50 values were calculated by first transforming the data using equation X=Log(X). The transformed data was then fitted using nonlinear regression, using fitting algorithm, log (inhibitor) vs. response—variable slope (four parameters).

For assay [4], the target named is T4, mouse ICOS-mFc (Chimerigen) (mouse, UniProt Q9WVS0 21-141, limits assumed).
T4 construct: also called mouse ICOS receptor; mouse ICOS Receptor; not shown: mouse Fc of the bought construct
T4 sequence: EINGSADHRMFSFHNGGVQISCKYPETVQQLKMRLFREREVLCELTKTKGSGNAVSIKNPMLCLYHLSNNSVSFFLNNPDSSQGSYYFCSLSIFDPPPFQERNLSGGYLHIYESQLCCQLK
In words: HTRF neutralisation of Alexa 647 mouse B7-H2 binding to mouse ICOS-mFc; human IgG4.PE; mean, n = 3. How it is done:
as §2, §3
Background: TR-FRET usually uses a lanthanide donor and a delayed reading to cut background.

The target in assay [5] is T3, human ICOS-mFc (Chimerigen). The assay can be described thus: HTRF neutralisation of Alexa 647 human B7-H2 binding to human ICOS-mFc; human IgG4.PE; mean, n = 4. As for the experimental part: as §2, §3
Assay [6] has as its target T4, mouse ICOS-mFc (Chimerigen). The assay can be described thus: HTRF neutralisation of Alexa 647 mouse B7-H2 binding to mouse ICOS-mFc; human IgG1; mean, n = 3. How it is done: as §2, §3
Assay [7] addresses T1, Human ICOS extracellular domain fused …. The assay can be described thus: SPR (ProteOn XPR36), human ICOS ECD-Fc captured, Fab analyte, pH 5.5, 37 C. As for the experimental part: (§4) In addition, a comparison was performed of antibody:antigen binding affinity at different pH values. As before, the dimeric human ICOS protein, presented as the extracellular domain of ICOS fused to a human Fc region, was captured on the anti-human Fc capture surface created using the 3 antibody cocktail, immobilised on the GLC biosensor chip by primary amine coupling. SPR analysis of recombinantly expressed anti-ICOS Fabs was carried out on the ProteOn XPR36 Array system (Biorad). The Fab fragments were used as analyte to generate binding sensorgrams, which were double referenced with a buffer injection (i.e., 0 nM). The subsequent referenced sensorgrams were fitted to the 1:1 model inherent to the ProteOn analysis software. […] Data were fitted to the 1:1 model.

Assay [8] has the same target. The assay can be described thus: SPR (ProteOn XPR36), human ICOS ECD-Fc captured, Fab analyte, pH 7.4, 37 C. How it is done: as §4

B1: STIM006 Fab (Fab, V domains shown)
VH: QVQLVESGGGLVKPGGSLRLSCAASGFTFSDYFMSWIRQAPGKGLEWISYISSSGSTIYYADSVRGRFTISRDNAKYSLYLQMNSLRSEDTAVYYCARDHYDGSGIYPLYYYYGLDVWGQGTTVTVSS
VL: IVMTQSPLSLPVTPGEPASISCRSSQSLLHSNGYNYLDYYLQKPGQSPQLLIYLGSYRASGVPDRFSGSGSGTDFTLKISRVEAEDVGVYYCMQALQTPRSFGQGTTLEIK
notes: Purified Fab
Broadly, the Kd is the constant that tells how readily two partners part at equilibrium. A high value points to lower affinity. On to B1, for which the dissociation constant (Kd) was found to be 13.8 nM in assay [1] and 318 nM in assay [2].

B2: STIM006 human IgG1 (antibody, V domains shown)
VH: QVQLVESGGGLVKPGGSLRLSCAASGFTFSDYFMSWIRQAPGKGLEWISYISSSGSTIYYADSVRGRFTISRDNAKYSLYLQMNSLRSEDTAVYYCARDHYDGSGIYPLYYYYGLDVWGQGTTVTVSS
VL: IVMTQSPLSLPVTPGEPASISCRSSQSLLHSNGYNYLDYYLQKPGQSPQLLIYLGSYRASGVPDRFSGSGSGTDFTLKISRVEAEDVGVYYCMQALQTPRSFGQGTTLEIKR
notes: Human IgG1 format
As a reminder, the IC50 is the concentration that inhibits the measured activity by half. A low value points to greater potency. B2 returned a half-inhibitory concentration (IC50) in assay [3] of 2.2 nM.

B3: STIM003 human IgG4.PE (antibody, V domains shown)
VH: EVQLVESGGGVVRPGGSLRLSCVASGVTFDDYGMSWVRQAPGKGLEWVSGINWNGGDTDYSDSVKGRFTISRDNAKNSLYLQMNSLRAEDTALYYCARDFYGSGSYYHVPFDYWGQGILVTVSS
VL: EIVLTQSPGTLSLSPGERATLSCRASQSVSRSYLAWYQQKRGQAPRLLIYGASSRATGIPDRFSGDGSGTDFTLSISRLEPEDFAVYYCHQYDMSPFTFGPGTKVDIK
notes: Human IgG4.PE (null-effector) format
Consider B3, for which the results for the IC50 in assay [4] and in assay [5] were 0.2 nM and 1.2 nM, respectively.

B4: STIM004 human IgG1 (antibody, V domains shown)
VH: EVQLVESGGGVVRPGGSLRLSCAASGLTFDDYGMSWVRQVPGKGLEWVSGINWNGDNTDYADSVKGRFTISRDNAKNSLYLQMNSLRAEDTALYYCARDYYGSGSYYNVPFDYWGQGTLVTVSS
VL: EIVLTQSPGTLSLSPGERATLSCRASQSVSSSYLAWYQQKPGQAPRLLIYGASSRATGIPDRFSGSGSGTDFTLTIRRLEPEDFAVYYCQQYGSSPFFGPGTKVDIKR
notes: Human IgG1 format
Consider B4, for which the half-maximal inhibitory concentration (IC50) in assay [3] was 233 nM; in assay [6], 22.1 nM.

B5: STIM009 human IgG1 (antibody, V domains shown)
VH: QVQLVESGGGLVKPGGSLRLSCAASGFTFSDYYMSWIRQAPGKGLEWVSYISSSGSTIYYADSVKGRFTISRDNAKNSLYLQINSLRAEDTAVYYCARDFYDILTDSPYFYYGVDVWGQGTTVTVSS
VL: not shown
notes: Human IgG1 format
In assay [3], B5 registered an IC50 of 30.5 nM.

B6: STIM009 human IgG4.PE (antibody, V domains shown)
VH: QVQLVESGGGLVKPGGSLRLSCAASGFTFSDYYMSWIRQAPGKGLEWVSYISSSGSTIYYADSVKGRFTISRDNAKNSLYLQINSLRAEDTAVYYCARDFYDILTDSPYFYYGVDVWGQGTTVTVSS
VL: not shown
notes: as for B3
As for B6, the IC50 in assay [5] amounted to 4.6 nM.

B7: STIM001 human IgG4.PE (antibody, V domains shown)
VH: QVQVVQSGAEVKKPGASVKVSCKASGYTFSTFGITWVRQAPGQGLEWMGWISAYNGDTNYAQNLQGRVIMTTDTSTSTAYMELRSLRSDDTAVYYCARSSGHYYYYGMDVWGQGTTVTVSS
VL: DIVMTQSPLSLPVTPGEPASISCRSSQSLLHSNEYNYLDWYLQKPGQSPQLLIFLGSNRASGVPDRFSGSGSGTDFTLKITRVEAEDVGIYYCMQSLQTPLTFGGGTKVEIK
notes: as for B3
With B7, the results for the half-maximal inhibitory concentration (IC50) in assay [4] and in assay [5] were 4.7 nM and 1.3 nM, respectively.

B8: STIM002-B human IgG4.PE (antibody, V domains shown)
VH: QVQLVQSGGEVKKPGASVKVSCKASGYTFTSYGFSWVRQAPGQGLEWMGWISAYNGNTNYAQKLQGRVTMTTDTSTSTAYMELRSLRSDDTAVYYCARSTYFYGSGTLYGMDVWGQGTTVTVSS
VL: DIVMTQSPLSLPVTPGEPASISCRSSQSLLHSDGYNCLDWYLQKPGQSPQLLIYLGSTRASGFPDRFSGSGSGTDFTLKISRVEAEDVGVYYCMQALQTPCSFGQGTKLEIK
notes: as for B3
With B8, the values for the IC50 in assay [4] and in assay [5] were 43.9 nM and 3.4 nM, respectively.

B9: STIM002 human IgG1 (antibody, V domains shown)
VH: QVQLVQSGGEVKKPGASVKVSCKASGYTFTSYGFSWVRQAPGQGLEWMGWISAYNGNTNYAQKLQGRVTMTTDTSTSTAYMELRSLRSDDTAVYYCARSTYFYGSGTLYGMDVWGQGTTVTVSS
VL: DIVMTQSPLSLPVTPGEPASISCRSSQSLLHSDGYNYLDWYLQKPGQSPQLLIYLGSTRASGFPDRFSGSGSGTDFTLKISRVEAEDVGVYYCMQALQTPLSFGQGTKLEIKR
notes: Human IgG1 format
For the molecule B9, the IC50 in assay [3] turned out to be 1.9 nM; in assay [6] it was 6.9 nM.

B10: STIM002-B human IgG1 (antibody, V domains shown)
VH: QVQLVQSGGEVKKPGASVKVSCKASGYTFTSYGFSWVRQAPGQGLEWMGWISAYNGNTNYAQKLQGRVTMTTDTSTSTAYMELRSLRSDDTAVYYCARSTYFYGSGTLYGMDVWGQGTTVTVSS
VL: DIVMTQSPLSLPVTPGEPASISCRSSQSLLHSDGYNCLDWYLQKPGQSPQLLIYLGSTRASGFPDRFSGSGSGTDFTLKISRVEAEDVGVYYCMQALQTPCSFGQGTKLEIKR
notes: Human IgG1 format
In the case of B10, the concentration for half-maximal inhibition (IC50) in assay [3] was determined as 3.6 nM; in assay [6] it was 30 nM.

B11: STIM002-B Fab (Fab, V domains shown)
VH: QVQLVQSGGEVKKPGASVKVSCKASGYTFTSYGFSWVRQAPGQGLEWMGWISAYNGNTNYAQKLQGRVTMTTDTSTSTAYMELRSLRSDDTAVYYCARSTYFYGSGTLYGMDVWGQGTTVTVSS
VL: DIVMTQSPLSLPVTPGEPASISCRSSQSLLHSDGYNCLDWYLQKPGQSPQLLIYLGSTRASGFPDRFSGSGSGTDFTLKISRVEAEDVGVYYCMQALQTPCSFGQGTKLEIK
notes: Recombinantly expressed purified Fab
For the molecule B11, the Kd in assay [7] came out at 26.6 nM; in assay [8], 41.8 nM.

B12: STIM005 human IgG4.PE (antibody, V domains shown)
VH: QVQLVQSGAEVKKPGASVKVSCKASGYTFNSYGIIWVRQAPGQGLEWMGWISVHNGNTNCAQKLQGRVTMTTDTSTSTAYMELRSLRTDDTAVYYCARAGYDILTDFSDAFDIWGHGTMVTVSS
VL: DIQMTQSPSSLSASVGDRVTITCRASQNINNFLNWYQQKEGKGPKLLIYAASSLQRGIPSTFSGSGSGTDFTLTISSLQPEDFATYICQQSYGIPWVGQGTKVEIK
notes: as for B3
In the case of B12, the half-maximal inhibitory concentration (IC50) in assay [4] stood at 0.3 nM; in assay [5], 1.6 nM.

B13: STIM005 human IgG1 (antibody, V domains shown)
VH: QVQLVQSGAEVKKPGASVKVSCKASGYTFNSYGIIWVRQAPGQGLEWMGWISVHNGNTNCAQKLQGRVTMTTDTSTSTAYMELRSLRTDDTAVYYCARAGYDILTDFSDAFDIWGHGTMVTVSS
VL: DIQMTQSPSSLSASVGDRVTITCRASQNINNFLNWYQQKEGKGPKLLIYAASSLQRGIPSTFSGSGSGTDFTLTISSLQPEDFATYICQQSYGIPWVGQGTKVEIKR
notes: Human IgG1 format
As to B13, the values for the IC50 in assay [3] and in assay [6] were 2.5 nM and 0.3 nM, respectively.
